Experimental data published in patent US20210130452A1 (Merck KGaA, published 2021).
Several values for one entry are separate records, joined by “and”; a condition that tells them apart may be missing. Equal entries are not always repeated. Where two headings read alike, the source gives them in different places.

Columns and labels:
human IL-17A [1] = target: T1, human IL-17A (human, UniProt Q16552 24-155); assay: SPR (Biacore) off-rate
T1 construct: secreted form made in Hek293 cells (GenBank U32659); also called hIL-17A; hIL17A
T1 sequence (Q16552 other isoform, or with tags, fused parts or gaps): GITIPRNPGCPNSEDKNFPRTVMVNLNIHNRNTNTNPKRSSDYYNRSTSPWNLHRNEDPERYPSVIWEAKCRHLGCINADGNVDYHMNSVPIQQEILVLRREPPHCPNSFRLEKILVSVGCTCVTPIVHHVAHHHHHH

human IL-17F [2] = target: T2, human IL-17F (human, UniProt Q96PD4 31-163); assay: SPR (Biacore) off-rate
T2 construct: made in Hek293 cells (GenBank AF384857); also called hIL-17F; hIL17F
T2 sequence: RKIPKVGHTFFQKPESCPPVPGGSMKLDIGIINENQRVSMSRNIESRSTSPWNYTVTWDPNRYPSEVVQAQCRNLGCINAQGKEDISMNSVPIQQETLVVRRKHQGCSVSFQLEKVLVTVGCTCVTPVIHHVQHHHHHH

[3] = target: T3, human IL-17A/F heterodimer (human, UniProt Q16552 24-155; Q96PD4 31-163, limits assumed); assay: SPR (Biacore) off-rate
T3 construct: bought, made in E. coli (R&D Systems 5194-IL/CF); also called hIL-17A/F; hIL17A/F
Target sequence in this assay (Q16552 24-155 limits assumed, chain 1 of 2, one chain of several): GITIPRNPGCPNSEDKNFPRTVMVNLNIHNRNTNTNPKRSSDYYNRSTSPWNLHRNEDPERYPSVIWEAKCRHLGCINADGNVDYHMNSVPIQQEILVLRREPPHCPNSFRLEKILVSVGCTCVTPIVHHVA

human IL-17A [4] = target: T1, human IL-17A; assay: SPR (Biacore) off-rate; remark: listed apart in the source
human IL-17F [5] = target: T2, human IL-17F; assay: SPR (Biacore) off-rate; remark: listed apart in the source
[6] = target: T3, human IL-17A/F heterodimer; assay: SPR (Biacore) off-rate; remark: listed apart in the source
Target sequence in this assay (Q16552 24-155 limits assumed, one chain of several): as the sequence (Q16552 24-155 limits assumed, chain 1 of 2, one chain of several) above

Cynomolgus monkey IL-17A [7] = target: T4, Cynomolgus monkey IL-17A (Cynomolgus monkey, UniProt A0A2K5TTB0 24-155); assay: SPR (Biacore) off-rate
T4 construct: also called cyno IL-17A; cIL-17A
T4 sequence (A0A2K5TTB0 entry or part of it): as the sequence (Q16552 24-155 limits assumed, chain 1 of 2, one chain of several) above, with T3A, P8S, N34S, I77V, N78K, P104R counted along it

Cynomolgus monkey IL-17F [8] = target: T5, Cynomolgus monkey IL-17F (Cynomolgus monkey, UniProt G7P4V0 31-163); assay: SPR (Biacore) off-rate
T5 construct: also called cyno IL-17F; cIL-17F
T5 sequence: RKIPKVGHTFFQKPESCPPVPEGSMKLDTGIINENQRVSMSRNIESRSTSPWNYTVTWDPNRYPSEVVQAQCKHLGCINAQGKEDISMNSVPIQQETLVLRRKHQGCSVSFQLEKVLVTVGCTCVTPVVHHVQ

human IL-17A [9] = target: T1, human IL-17A; assay: cell-based or functional assay
human IL-17F [10] = target: T2, human IL-17F; assay: cell-based or functional assay
[11] = target: T3, human IL-17A/F heterodimer; assay: cell-based or functional assay
Target sequence in this assay (Q16552 24-155 limits assumed, one chain of several): as the sequence (Q16552 24-155 limits assumed, chain 1 of 2, one chain of several) above

Cynomolgus monkey IL-17F [12] = target: T5, Cynomolgus monkey IL-17F; assay: cell-based or functional assay
human IL-17A [13] = target: T1, human IL-17A; assay: AlphaScreen hIL-17A-IL-17RA; reference itself
human IL-17F [14] = target: T2, human IL-17F; assay: AlphaScreen hIL-17F-IL-17RC; reference itself
human IL-17A [15] = target: T1, human IL-17A; assay: AlphaScreen hIL-17A-IL-17RA; reference itself; remark: listed apart in the source
human IL-17F [16] = target: T2, human IL-17F; assay: AlphaScreen hIL-17F-IL-17RC; reference itself; remark: listed apart in the source
human IL-17A [17] = target: T1, human IL-17A; assay: AlphaScreen hIL-17A-IL-17RA; vs IL17MS13E02
human IL-17F [18] = target: T2, human IL-17F; assay: AlphaScreen hIL-17F-IL-17RC; vs IL17MS13E02
human IL-17A [19] = target: T1, human IL-17A; assay: SPR (Biacore) off-rate; remark: listed apart in the source
human IL-17F [20] = target: T2, human IL-17F; assay: SPR (Biacore) off-rate; remark: listed apart in the source
[21] = target: T3, human IL-17A/F heterodimer; assay: SPR (Biacore) off-rate; remark: listed apart in the source
Target sequence in this assay (Q16552 24-155 limits assumed, one chain of several): as the sequence (Q16552 24-155 limits assumed, chain 1 of 2, one chain of several) above

human IL-17A [22] = target: T1, human IL-17A; assay: SPR (Biacore) off-rate; remark: listed apart in the source
human IL-17F [23] = target: T2, human IL-17F; assay: SPR (Biacore) off-rate; remark: listed apart in the source
[24] = target: T3, human IL-17A/F heterodimer; assay: SPR (Biacore) off-rate; remark: listed apart in the source
Target sequence in this assay (Q16552 24-155 limits assumed, one chain of several): as the sequence (Q16552 24-155 limits assumed, chain 1 of 2, one chain of several) above

Cynomolgus monkey IL-17A [25] = target: T4, Cynomolgus monkey IL-17A; assay: SPR (Biacore) off-rate; remark: listed apart in the source
Cynomolgus monkey IL-17F [26] = target: T5, Cynomolgus monkey IL-17F; assay: SPR (Biacore) off-rate; remark: listed apart in the source
human IL-17A [27] = target: T1, human IL-17A; assay: cell-based or functional assay; remark: listed apart in the source
human IL-17F [28] = target: T2, human IL-17F; assay: cell-based or functional assay; remark: listed apart in the source
[29] = target: T3, human IL-17A/F heterodimer; assay: cell-based or functional assay; remark: listed apart in the source
Target sequence in this assay (Q16552 24-155 limits assumed, one chain of several): as the sequence (Q16552 24-155 limits assumed, chain 1 of 2, one chain of several) above

Cynomolgus monkey IL-17F [30] = target: T5, Cynomolgus monkey IL-17F; assay: cell-based or functional assay; remark: listed apart in the source
human IL-17A [31] = target: T1, human IL-17A; assay: AlphaScreen hIL-17A-IL-17RA; reference itself; remark: listed apart in the source
human IL-17F [32] = target: T2, human IL-17F; assay: AlphaScreen hIL-17F-IL-17RC; reference itself; remark: listed apart in the source
human IL-17A [33] = target: T1, human IL-17A; assay: AlphaScreen hIL-17A-IL-17RA; reference itself; remark: listed apart in the source
human IL-17F [34] = target: T2, human IL-17F; assay: AlphaScreen hIL-17F-IL-17RC; reference itself; remark: listed apart in the source
human IL-17A [35] = target: T6, human IL-17A (human, UniProt Q16552 24-155); assay: cell-based or functional assay; remark: listed apart in the source
T6 sequence (Q16552 other isoform, or with tags, fused parts or gaps): as the sequence (Q16552 other isoform, or with tags, fused parts or gaps) above

human IL-17F [36] = target: T7, human IL-17F (human, UniProt Q96PD4 31-163); assay: cell-based or functional assay; remark: listed apart in the source
T7 sequence: T2 sequence

human IL-17F [37] = target: T7, human IL-17F; assay: KinExA, 10 pM Nanobody
human IL-17A [38] = target: T6, human IL-17A; assay: KinExA, 50 pM Nanobody
Protocol: (§1) The affinity of a limited set of formatted Nanobodies was determined using the KinExA.

human IL-17F [39] = target: T7, human IL-17F; assay: KinExA, 50 pM Nanobody
Protocol: as §1

human IL-17A [40] = target: T6, human IL-17A; assay: competition ELISA IL17A-RA
Protocol: To this end, IL-17RA, respectively IL-17RC was coated at a concentration of 1 μg/ml in PBS.

human IL-17A [41] = target: T6, human IL-17A; assay: KinExA, 30 pM Nanobody
human IL-17A [42] = target: T6, human IL-17A; assay: KinExA, 100 pM Nanobody
Protocol: as §1

human IL-17A [43] = target: T6, human IL-17A; assay: cell-based or functional assay; remark: listed apart in the source
human IL-17F [44] = target: T7, human IL-17F; assay: cell-based or functional assay; remark: listed apart in the source
Cynomolgus monkey IL-17A [45] = target: Cynomolgus monkey IL-17A (Cynomolgus monkey, UniProt A0A2K5TTB0 24-155); assay: cell-based or functional assay
Target sequence in this assay (A0A2K5TTB0 entry or part of it): as the sequence (Q16552 24-155 limits assumed, chain 1 of 2, one chain of several) above, with T3A, P8S, N34S, I77V, N78K, P104R counted along it

human IL-17F [46] = target: T7, human IL-17F; assay: KinExA, 600 pM Nanobody

B1: IL17MS13E02 (VHH)
VHH: EVQLVESGGGLVQAGGSLRLSCAASGRTYDAMGWLRQAPGKEREFVAAISGSGDDTYYADSVKGRFTISKDNAGITMYLQMNSLKPEDTAVYYCATRRGLYYVWDSNDYENWGQGTQVTVSS
notes: Class 4 Nanobody, wild type; also called WT
Human IL-17A [1]
  koff: 0.000114 s⁻¹
Human IL-17F [2]
  koff: 0.00223 s⁻¹
[3]
  koff: 3.97e-05 s⁻¹
Human IL-17A [4]
  koff: 0.000114 s⁻¹
Human IL-17F [5]
  koff: 0.00223 s⁻¹
[6]
  koff: 3.97e-05 s⁻¹
Cynomolgus monkey IL-17A [7]
  koff: 0.000103 s⁻¹
Cynomolgus monkey IL-17F [8]
  koff: 0.046 s⁻¹
Human IL-17A [9]
  IC50 cell based assay hIL-17A: 1.73 nM
Human IL-17F [10]
  IC50 cell based assay hIL-17F: 44 nM
[11]
  IC50 cell based assay hIL-17A/F: 1.99 nM
Cynomolgus monkey IL-17F [12]
  IC50 cell based assay cyno IL-17F: 35 nM
Human IL-17A [13]
  IC50 fold difference vs WT: 1 fold
Human IL-17F [14]
  IC50 fold difference vs WT: 1 fold
Human IL-17A [15]
  IC50 fold difference vs WT: 1 fold
Human IL-17F [16]
  IC50 fold difference vs WT: 1 fold

B2: IL17MS3072 (VHH)
VHH: DVQLVESGGGLVQPGGSLRLSCAASGRTYDALGWLRQAPGKEREFVAAISGSGDDTYYADSVKGRFTISRDNSKNTLYLQMNSLRPEDTAVYYCATRRGLYYVWDANDYENWGQGTLVTVSS
notes: variant of IL17MS13E02; Kabat numbering
Human IL-17A [9]
  IC50 cell based assay hIL-17A: 0.77 nM
Human IL-17F [10]
  IC50 cell based assay hIL-17F: 27 nM
[11]
  IC50 cell based assay hIL-17A/F: 3.5 nM
Cynomolgus monkey IL-17F [12]
  IC50 cell based assay cyno IL-17F: 25.2 nM
Human IL-17A [17]
  IC50 fold difference vs WT: 0.59 fold
Human IL-17F [18]
  IC50 fold difference vs WT: 0.3 fold

B3: IL17MS13B03 (VHH)
VHH: EVQLVESGGGSVQAGDSLRLSCAASGRANSINWFGWFRQTPGKEREFVAGIRWSDAYTEYANSVKGRFTISRDNAKNTVDLQMDSLKPEDTAVYYCVLDLSTVRYWGQGTQVTVSS
notes: as for B1
Human IL-17A [19]
  koff: 0.000131 s⁻¹ and 0.000208 s⁻¹
Human IL-17F [20]
  koff: 0.00792 s⁻¹
[21]
  koff: 6.21e-05 to 0.000125 s⁻¹
Human IL-17A [22]
  koff: 0.000131 s⁻¹ and 0.000208 s⁻¹
Human IL-17F [23]
  koff: 0.00792 s⁻¹
[24]
  koff: 6.21e-05 to 0.000125 s⁻¹
Cynomolgus monkey IL-17A [25]
  koff: 0.000114 s⁻¹
Cynomolgus monkey IL-17F [26]
  koff: 0.00469 s⁻¹
Human IL-17A [27]
  IC50 cell based assay hIL17A: 1.34 nM
Human IL-17F [28]
  IC50 cell based assay hIL17F: 35 nM
[29]
  IC50 cell based assay hIL17A/F: 4.32 nM
Cynomolgus monkey IL-17F [30]
  IC50 cell based assay cyno IL17F: 29 nM
Human IL-17A [31]
  IC50 fold difference compared to WT: 1 fold
Human IL-17F [32]
  IC50 fold difference compared to WT: 1 fold
Human IL-17A [33]
  IC50 fold difference compared to WT: 1 fold
Human IL-17F [34]
  IC50 fold difference compared to WT: 1 fold

B4: 13B03-LH-Fc (Fc fusion, not shown: a dimerising Fc or GST)
chain: EVQLVESGGGSVQAGDSLRLSCAASGRANSINWFGWFRQTPGKEREFVAGIRWSDAYTEYANSVKGRFTISRDNAKNTVDLQMDSLKPEDTAVYYCVLDLSTVRYWGQGTQVTVSSEPKTPKPQPQPQPQPNPTTESKCPKCP
notes: bivalent Fc fusion from Hek-293-6E cells; also called MSB0010530
Human IL-17A [35]
  Emax, hIL-17A induced IL-6, HT-1080, 100 µM HSA: 97.5%
  IC50, hIL-17A induced IL-6, HT-1080, 100 µM HSA: 0.95 nM
Human IL-17F [36]
  IC50, hIL-17F induced IL-6, HT-1080, 100 µM HSA: 15.6 nM
Human IL-17F [37]
  Kd: 0.0223 nM
Human IL-17A [38]
  Kd: 0.002 nM
Human IL-17F [39]
  Kd: 0.02 nM
Human IL-17A [40]
  IC50: 0.031 nM

B5: 13E02-SH-Fc (Fc fusion, not shown: a dimerising Fc or GST)
chain: EVQLVESGGGLVQAGGSLRLSCAASGRTYDAMGWLRQAPGKEREFVAAISGSGDDTYYADSVKGRFTISKDNAGITMYLQMNSLKPEDTAVYYCATRRGLYYVWDSNDYENWGQGTQVTVSSEPKSSDKTHTCPPCP
notes: bivalent Fc fusion from Hek-293-6E cells
Human IL-17A [41]
  Kd: 0.0036 nM
Human IL-17A [42]
  Kd: 0.009 nM

B6: 13E02-LH-Fc (Fc fusion, not shown: a dimerising Fc or GST)
chain: EVQLVESGGGLVQAGGSLRLSCAASGRTYDAMGWLRQAPGKEREFVAAISGSGDDTYYADSVKGRFTISKDNAGITMYLQMNSLKPEDTAVYYCATRRGLYYVWDSNDYENWGQGTQVTVSSEPKTPKPQPQPQPQPNPTTESKCPKCP
notes: bivalent Fc fusion from Hek-293-6E cells; also called MSB0010606
Human IL-17A [43]
  IC50, hIL-17A induced IL-6, HT-1080, without HSA: 0.19 nM
Human IL-17F [44]
  IC50, hIL-17F induced IL-6, HT-1080, without HSA: 2.7 nM
Human IL-17A [35]
  Emax, hIL-17A induced IL-6, HT-1080, 100 µM HSA: 98.5%
  IC50, hIL-17A induced IL-6, HT-1080, 100 µM HSA: 0.85 nM
Human IL-17F [36]
  IC50, hIL-17F induced IL-6, HT-1080, 100 µM HSA: 15.3 nM
Cynomolgus monkey IL-17A [45]
  IC50, Cyno IL17A, HT-1080 bioassay: 0.19 nM
Human IL-17F [46]
  Kd: 2.04 nM
